Results reported in patent publication US8329195B2, “Detoxified pneumococcal neuraminidase and uses thereof” (priority 2007, dated 2012).
Positions count from the first letter of the chain named. Read-outs that look alike come from different tables or passages of the source.

B1: NanA571: recombinant 571-amino-acid central fragment of TIGR4 NanA, corresponding to residues 230-800 of R6 NanA; His-tagged form SEQ ID NO:18 (protein, listed as Streptococcus pneumoniae)
chain: PTAELPKGRVRLYVNGVLSRTSLRSGNFIKDMPDVTHVQIGATKRANNTVWGSNLQIRNLTVYNRALTPEEVQKRSQLFKRSDLEKKLPEGAALTEKTDIFESGRNGNPNKDGIKSYRIPALLKTDKGTLIAGADERRLHSSDWGDIGMVIRRSEDNGKTWGDRVTITNLRDNPKASDPSIGSPVNIDMVLVQDPETKRIFSIYDMFPEGKGIFGMSSQKEEAYKKIDGKTYQILYREGEKGAYTIRENGTVYTPDGKATDYRVVVDPVKPAYSDKGDLYKGDQLLGNIYFTTNKTSPFRIAKDSYLWMSYSDDDGKTWSAPQDITPMVKADWMKFLGVGPGTGIVLRNGPHKGRILIPVYTTNNVSHLDGSQSSRVIYSDDHGKTWHAGEAVNDNRQVDGQKIHSSTMNNRRAQNTESTVVQLNNGDVKLFMRGLTGDLQVATSKDGGVTWEKDIKRYPQVKDVYVQMSAIHTMHEGKEYIILSNAGGPKRENGMVHLARVEENGELTWLKHNPIQKGEFAYNSLQELGNGEYGILYEHTEKGQNAYTLSFRKFNWEFLSKNLISPTEAN
B2: NanA571_Y752F: NanA571 with tyrosine Y752 converted to phenylalanine (protein)
chain: B1 chain with Y523F
B3: NanA571_E647T: NanA571 with glutamate E647 converted to threonine (protein)
chain: B1 chain with E418T
B4: NanB: another S. pneumoniae neuraminidase, 43% homology with NanA (protein, UniProt Q54727 30-697, looked up)
Sialidase B: NELNYGQLSISPIFQGGSYQLNNKSIDISSLLLDKLSGESQTVVMKFKADKPNSLQALFGLSNSKAGFKNNYFSIFMRDSGEIGVEIRDAQKGINYLFSRPASLWGKHKGQAVENTLVFVSDSKDKTYTMYVNGIEVFSETVDTFLPISNINGIDKATLGAVNREGKEHYLAKGSIDEISLFNKAISDQEVSTIPLSNPFQLIFQSGDSTQANYFRIPTLYTLSSGRVLSSIDARYGGTHDSKSKINIATSYSDDNGKTWSEPIFAMKFNDYEEQLVYWPRDNKLKNSQISGSASFIDSSIVEDKKSGKTILLADVMPAGIGNNNANKADSGFKEINGHYYLKLKKNGDNDFRYTVRENGVVYNETTNKPTNYTINDKYEVLEGGKSLTVEQYSVDFDSGSLRERHNGKQVPMNVFYKDSLFKVTPTNYIAMTTSQNRGESWEQFKLLPPFLGEKHNGTYLCPGQGLALKSSNRLIFATYTSGELTYLISDDSGQTWKKSSASIPFKNATAEAQMVELRDGVIRTFFRTTTGKIAYMTSRDSGETWSKVSYIDGIQQTSYGTQVSAIKYSQLIDGKEAVILSTPNSRSGRKGGQLVVGLVNKEDDSIDWKYHYDIDLPSYGYAYSAITELPNHHIGVLFEKYDSWSRNELHLSNVVQYIDLEINDLTK
B5: NanA186: recombinant near-N-terminal NanA fragment from TIGR4, residues 157-342; His-tagged form SEQ ID NO:22 (protein)
chain: EFKPDAKAPAFYNLFSVSSATKKDEYFTMAVYNNTATLEGRGSDGKQFYNNYNDAPLKVKPGQWNSVTFTVEKPTAELPKGRVRLYVNGVLSRTSLRSGNFIKDMPDVTHVQIGATKRANNTVWGSNLQIRNLTVYNRALTPEEVQKRSQLFKRSDLEKKLPEGAALTEKTDIFESGRNGNPNKDG
B6: NanA215: recombinant NanA fragment from TIGR4, residues 347-561, covers 2 of 4 Asp boxes; His-tagged form SEQ ID NO:20 (protein)
chain: RIPALLKTDKGTLIAGADERRLHSSDWGDIGMVIRRSEDNGKTWGDRVTITNLRDNPKASDPSIGSPVNIDMVLVQDPETKRIFSIYDMFPEGKGIFGMSSQKEEAYKKIDGKTYQILYREGEKGAYTIRENGTVYTPDGKATDYRVVVDPVKPAYSDKGDLYKGDQLLGNIYFTTNKTSPFRIAKDSYLWMSYSDDDGKTWSAPQDITPMVKAD

Key:
[1] = system: TIGR4 Streptococcus pneumoniae; assay type: in vivo; conditions: for protection against nasal carriage / colonization (nasal wash and nasal tissue) / protection from pneumococci reaching (invasion into) the lungs, olfactory bulb, or brain: CBA/N mice, 50 μg intranasal with CTB, TIGR4 challenge, day 7
[2] = Sialidase (neuraminidase) activity of recombinant NanA fragments; assay type: biochemical
Procedure: The decreased activity of a detoxified neuraminidase or a neuraminidase fragment as compared to non-detoxified neuraminidase can be measured by the assay of Lock, et al. (Microb. Pathog. 4; 33-43, 1988). Using the Lock assay, NanA activity in lysates, serum, or blood can be measured using 2′-(4-methyl-umbelliferyl)-α-D-N-acetylyneuraminic acid as the substrate in a enzyme assay (Lock et al. 1988). Ten microliters of substrate are combined with 10 μL of serum and incubated for 5 minutes at 37° C. The reaction is stopped using 0.5 M sodium carbonate. Neuraminidase activity is measured in terms of the amount of 4-methylumbelliferone (MU) released per minute. MU has an excitation wavelength of 366 nm and an emission wavelength of 445 nm. […] Thus, the detoxified neuraminidase or fragment thereof can have no measurable enzymatic activity as compared to the enzymatic activity of a non-detoxified neuraminidase. Further, the detoxified neuraminidase can have protective antibody eliciting activity similar to the non-detoxified neuraminidase.
Such an assay is described in Berry et al., J. Bacterial 1784854-4860 (1996).

[3] = MUAN assay of neuraminidase activity; assay type: biochemical; conditions: MUAN assay at 37° C. at pH 7.0
From the text: The total abolishment of activity is consistent with the proposed activities as based on the alignment with structures previously known.

[4] = NanB at its optimal pH; cited from earlier work

Molecule | protection against nasal carriage / colonization (nasal wash and nasal tissue) [1] | sialidase activity of the recombinant protein [2] | neuraminidase activity [3] | protection from pneumococci reaching (invasion into) the lungs, olfactory bulb, or brain [1] | also measured
B1 | solid protection | active | 3.9 µmol/min/mg | – | protection against nasal carriage / colonization (nasal wash and nasal tissue) ([1]; listed as rNanA571): elicited protection; in vivo protection to S. pneumoniae challenge ([1]; figure legend FIG. 11): elicited in vivo protection; sialidase activity of the recombinant protein ([2]; listed as rNanA571): enzymatically active
B2 | – | – | Neither mutation exhibited any detectable neuraminidase activity | – | –
B3 | – | – | Neither mutation exhibited any detectable neuraminidase activity | – | –
B4 | – | – | – | – | sialidase activity relative to NanA at its pH optimum [4]: about 1/100
B5 | no observed statistically significant protection | no sialidase activity | – | did not elicit protection | –
B6 | no observed statistically significant protection | no sialidase activity | – | did not elicit protection | –
